Reference: patent publication US20060035302A1, “Kinase substrates with multiple phosphorylation sites” (Applera Corporation, priority 2004, published 2006)
[ ]: non-standard residue; d: D form. The star is where a group is joined. dye2 = 5-carboxy-2′,7′-dipyridyl-sulfonefluorescein (Dye 2); Undecanoyl = CCCCCCCCCCC(=O)*; code O = not defined here

What was measured:
[1] = cited from earlier work
protein kinase p38βII = protein kinase p38βII (Homo sapiens, UniProt Q15759); assay: Fluorogenic protein kinase assay, real-time fluorescence in 384-well plates; format: biochemical; conditions: substrate 8 μM; 10 and 100 μM ATP; compared with the kinase substrate with one recognition moiety (FIGS. 6A-6B)
Description: Kinase assays were performed using Coming 384-well, black, non-binding surface (NBS), microwell plates. Fluorescence was read in real time using a […] Gemini XS plate reader, with excitation and emission set at 500 and 550 respectively. The plate was read every minute for one hour at ambient temperature
Concentrations of dye-labeled peptides were determined by dilution of the purified peptides into dimethylformamide (200 μL) with 1 M NaOH (5 μL) and measuring the absorbance of either 5-carboxy-2′,7′-dipyridyl-sulfonefluorescein (i.e. dye2) at its absorbance maximum (548 nm) or 2′,7′,4,7-tetachloro-5-carboxy fluorescein (i.e. 2′,7′-dichloro-5-carboxy-4,7-dichlorofluorescein or “tet”) at its absorbance maximum (541 nm). The extinction coefficient of both dyes was assumed to be 80,000 cm^−1M^−1.
[…] The solution was pipetted into wells of a 384-well plate ([…] per well). Varying concentrations of ATP (final conc 10 and 100 μM) were added to the wells to initiate the kinase reaction. The plate was read at 500 nm excitation, 550 nm emission, each minute for 1 hour. The signal to background ratio for the kinase substrate with two recognition moieties (compound 2) was improved as compared to the signal to background ratio for the kinase substrate with one recognition moiety.

[2] = Net charge of substrate from its charged groups; format: physicochemical; conditions: pH 7.6; unphosphorylated substrate
Excerpt: The net charge of the substrate can be established by including an appropriate number of negatively and positively charged groups in the substrate. For example, to establish a net neutral charge (net charge=0), the substrate is designed to contain an equal number of positively and negatively charged groups. […] Aspartate and glutamate contain carboxyl side chains having a single negative charge. A phosphoserine residue carries two negative charges on a phosphate group. […] In addition, the fluorescent moiety may also contain charged groups that should be considered to obtain a particular net charge of the substrate.
This is offset by the guanidinium groups in the two arginine residues, for a total of two positive charges. Thus, the net charge of the compound is about 0 at pH 7.6.

[3] = target: T1, C11-OOK(dye2)RRIPLSPLSPOOK(C11)-amide
T1 chain: KRRIPLSPLSPK

[4] = target: T2, C11OOK(dye 2)RRIPLSPOOK(C11)NH2
T2 chain: KRRIPLSPK

Molecule: N[C@@H](CS)C(=O)O [Cysteine (C), Cysteine]
- pK / pKa of side chain [1]: about 8

Molecule: N[C@@H](Cc1c[nH]cn1)C(=O)O [Histidine (H), Histidine]
- pK / pKa of side chain [1]: about 7

Molecule: C11—OOK(dye2)RRIPLSPLSPOOK(C11)-amide ({Undecanoyl-code O-code O}-K(dye2)RRIPLSPLSP[code O][code O]K(Undecanoyl)-NH2; reading uncertain; also: printed as C11—OOK(dye2)RRIPLSPLSPOOK(C11)-amide) [compound 2, kinase substrate for p38βII; two recognition moieties, two hydrophobic moieties, Dye2]
- signal to background ratio (protein kinase p38βII): improved signal to background ratio
- net charge [2]: about 0

B1: protein kinase p38βII (protein)
chain: MSGPRAGFYRQELNKTVWEVPQRLQGLRPVGSGAYGSVCSAYDARLRQKVAVKKLSRPFQSLIHARRTYRELRLLKHLKHENVIGLLDVFTPATSIEDFSEVYLVTTLMGADLNNIVKCQALSDEHVQFLVYQLLRGLKYIHSAGIIHRDLKPSNVAVNEDCELRILDFGLARQADEEMTGYVATRWYRAPEIMLNWMHYNQTVDIWSVGCIMAELLQGKALFPGSDYIDQLKRIMEVVGTPSPEVLAKISSEHARTYIQSLPPMPQKDLSSIFRGANPLAIDLLGRMLVLDSDQRVSAAEALAHAYFSQYHDPEDEPEAEPYDESVEAKERTLEEWKELTYQEVLSFKPPEPPKPPGSLEIEQ
- signal to background ratio (fluorescence kinase assay, 10 and 100 µM ATP) [3]: The signal to background ratio for the kinase substrate with two recognition moieties (compound 2) was improved as compared to the signal to background ratio for the kinase substrate with one recognition moiety
- signal to background ratio, fold improvement over the substrate with one recognition moiety [3]: improved the signal to background ratio 3 to 5 fold
- rate of reaction / signal to background ratio (fluorescence kinase assay, 10 and 100 µM ATP) [4]: comprising two protein kinase recognition moieties has an improved signal to background ratio as compared to the kinase substrate comprising one protein kinase recognition moiety, C11OOK(dye 2)RRIPLSPOOK(C11)NH2
